Source: the RNAGym collection of RNA variant scans (doi:10.1021/acssynbio.7b00057)

B1: Pistol ribozyme (parent)
chain: GGGUCGUUGUUCCAUAAUCGCGUGGAUAUGGCACGCAAGUUUCUACCGGGCACCGUAAAUGUCCGACUGGAGCCGUUCGGGCGGCUAUAAACAGACCUCAGGCCCGAAGCGUGGCGGCACCUGCCGCCGGUGGUAAAAAAGAUCGGAAGAGCACACGUCU

Variants of: B1
Test: aptazyme ON/OFF ratio, guanine; higher = stronger switching; co-transcriptional cleavage with and without guanine

Variant | aptazyme ON/OFF ratio
U7C U8G G9U U10G U11G | 1.18
U7C U8G G9U U10A U11A C12U C13A | 1.22
U7C U8G G9U U10A U11A C12U C13U | 1.25
U7C U8G G9U U10A U11A C12U C13G | 1.08
U7C U8G G9U U10C U11G C12G | 1.21
U7C U8G G9U U10C U11G C12A | 1.14
U7C U8G G9U U10C U11G C12U | 1.28
U7C U8G U10A U11C | 1.04
U7C U8G U10A U11G | 1.35
U7C U8G U10A U11A | 2.1
U7C U8G G9U U11A C12A C13G | 1.19
U7C U8G G9U U11A C12A C13U | 1.21
U7C U8G G9U U11A C12A C13A | 1.32
U7C U8G G9U U10G U11C C12A C13U | 1.15
U7C U8G G9U U10G U11C C12A C13G | 1.06
U7C U8G G9U U10G U11C C12A C13A | 1.11
U7C U8G G9U U10C C12A C13U | 1.37
U7C U8G G9U U10C C12A C13A | 1.41
U7C U8G G9U U10C C12A C13G | 1.19
U7C U8G U10A C13A | 1.15
U7C U8G U10A C13U | 1.46
U7C U8G U10A C13G | 1.15
U7C U8G U10A C12A C13G | 1.08
U7C U8G U10A C12A C13U | 1.23

Variant | aptazyme ON/OFF ratio
U7C U8G U10A C12A C13A | 1.16
U7C U8G G9U U10C U11C C12A C13U | 1.18
U7C U8G G9U U10C U11C C12A C13A | 1.06
U7C U8G G9U U10C U11C C12A C13G | 1.19
U7C U8G G9U U11A C12G C13U | 1.08
U7C U8G G9U U11A C12G C13A | 1.05
U7C U8G G9U U11A C12G C13G | 1.09
U7C U8G G9U U10C U11A C12A C13G | 1.15
U7C U8G G9U U10C U11A C12A C13A | 1.26
U7C U8G G9U U10C U11A C12A C13U | 1.24
U7C U8G U10C C12A C13G | 1.1
U7C U8G U10C C12A C13A | 1.28
U7C U8G U10C C12A C13U | 1.67
U7C U8G G9U U10C U11G C12G C13A | 1.15
U7C U8G G9U U10C U11G C12G C13U | 1.08
U7C U8G G9U U10C U11G C12G C13G | 1.15
U7C U8G G9U U11A C12A | 1.52
U7C U8G G9U U11A C12U | 1.39
U7C U8G G9U U11A C12G | 1.18
U7C U8G G9U U11C C12A C13G | 1.13
U7C U8G G9U U11C C12A C13A | 1.31
U7C U8G G9U U11C C12A C13U | 1.33
U7C U8G G9U U10A U11C C12U C13G | 1.11
U7C U8G G9U U10A U11C C12U C13A | 1.09

Variant | aptazyme ON/OFF ratio
U7C U8G G9U U10A U11C C12U C13U | 1.06
U7C U8G G9U U10G C12G C13G | 1.08
U7C U8G G9U U10G C12G C13A | 1.07
U7C U8G G9U U10G C12G C13U | 1.07
U7C U8G G9C U11G C13G | 1.03
U7C U8G G9C U11G C13U | 1.15
U7C U8G G9U U10C U11C C12U C13G | 1.05
U7C U8G G9U U10C U11C C12U C13A | 1.05
U7C U8G G9U U10C U11C C12U C13U | 1.09
U7C U8G U10A U11A C12G | 1.08
U7C U8G U10A U11A C12A | 1.14
U7C U8G U10A U11A C12U | 1.57
U7C U8G G9U U10A C12U | 1.15
U7C U8G G9U U10A C12A | 1.33
U7C U8G G9U U10A C12G | 1.18
U7C U8G G9U U10A U11A C12A C13U | 1.24
U7C U8G G9U U10A U11A C12A C13A | 1.16
U7C U8G G9U U10A U11A C12A C13G | 1.14
U7C U8G G9U U10G U11G C12A C13G | 1.05
U7C U8G G9U U10G U11G C12A C13A | 1.1
U7C U8G G9U U10G U11G C12A C13U | 1.19
U7C U8G G9U U11G C12A | 1.27
U7C U8G G9U U11G C12G | 1.35
U7C U8G G9U U11G C12U | 1.27

Variant | aptazyme ON/OFF ratio
U7C U8G G9U U10G U11C C12G | 1.18
U7C U8G G9U U10G U11C C12U | 1.09
U7C U8G G9U U10G U11C C12A | 1.18
U7C U8G G9U U10A U11G C12G C13G | 1.18
U7C U8G G9U U10A U11G C12G C13A | 1.05
U7C U8G G9U U10A U11G C12G C13U | 1.19
U7C U8G G9U U10A C12G C13A | 1.13
U7C U8G G9U U10A C12G C13U | 1.21
U7C U8G G9U U10A C12G C13G | 1.18
U7C U8G G9U U10G C13G | 1.17
U7C U8G G9U U10G C13U | 1.2
U7C U8G G9U U10G C13A | 1.19
U7C U8G U10A C12U C13A | 1.13
U7C U8G U10A C12U C13U | 1.33
U7C U8G U10A C12U C13G | 1.13
U7C U8G G9U C12A | 1.64
U7C U8G G9U C12G | 1.78
U7C U8G G9U C12U | 1.97
U7C U8G G9U U10G | 1.28
U7C U8G G9U U10C | 2.72
U7C U8G G9U U10A | 1.12
U7C U8G U10A U11A C12U C13G | 1.12
U7C U8G U10A U11A C12U C13A | 1.16
U7C U8G U10A U11A C12U C13U | 1.16

Variant | aptazyme ON/OFF ratio
U7C U8G G9U U10C U11A C12A | 1.43
U7C U8G G9U U10C U11A C12G | 1.26
U7C U8G G9U U10C U11A C12U | 1.41
U7C U8G U10A U11C C12G | 1.18
U7C U8G U10A U11C C12A | 1.13
U7C U8G U10A U11C C12U | 1.04
U7C U8G U10A U11A C13U | 1.29
U7C U8G U10A U11A C13G | 1.13
U7C U8G U10A U11A C13A | 1.12
U7C U8G U10C C12U C13A | 1.61
U7C U8G U10C C12U C13G | 1.3
U7C U8G G9U U10G U11G C12U C13G | 1.18
U7C U8G G9U U10G U11G C12U C13A | 1.2
U7C U8G G9U U10G U11G C12U C13U | 1.26
U7C U8G G9U U10A C12U C13G | 1.2
U7C U8G G9U U10A C12U C13U | 1.35
U7C U8G G9U U10A C12U C13A | 1.2
U7C U8G G9U U11C C13U | 1.09
U7C U8G G9U U11C C13G | 1.02
U7C U8G G9U U11C C13A | 1.12
U7C U8G U10A U11C C13G | 1.03
U7C U8G U10A U11C C13U | 1.01
U7C U8G U10A U11C C13A | 1.02
U7C U8G U10A C12G C13U | 1.18

Variant | aptazyme ON/OFF ratio
U7C U8G U10A C12G C13G | 1.1
U7C U8G U10A C12G C13A | 1.13
U7C U8G G9U U10A U11A C13A | 1.19
U7C U8G G9U U10A U11A C13G | 1.09
U7C U8G G9U U10A U11A C13U | 1.22
U7C U8G G9U U11C C12G C13U | 1.35
U7C U8G G9U U11C C12G C13A | 1.26
U7C U8G G9U U11C C12G C13G | 1.17
U7C U8G G9U U10G U11C C13U | 1.16
U7C U8G G9U U10G U11C C13G | 1.14
U7C U8G G9U U10G U11C C13A | 1.17
U7C U8G G9U C12U C13U | 1.2
U7C U8G G9U C12U C13G | 1.33
U7C U8G G9U C12U C13A | 1.31
U7C U8G G9U C12A C13G | 1.27
U7C U8G G9U C12A C13A | 1.42
U7C U8G G9U C12A C13U | 1.37
U7C U8G U10A U11C C12G C13A | 1.14
U7C U8G U10A U11C C12G C13U | 1.24
U7C U8G U10A U11C C12G C13G | 1.22
U7C U8G G9U U10A U11G C12A C13A | 1.11
U7C U8G G9U U10A U11G C12A C13U | 1.06
U7C U8G G9U U10A U11G C12A C13G | 1.14
U7C U8G G9U U10C U11C C13U | 1.03

Variant | aptazyme ON/OFF ratio
U7C U8G G9U U10C U11C C13G | 1.05
U7C U8G G9U U10C U11C C13A | 1.03
U7C U8G G9U U11G C12U C13U | 1.29
U7C U8G G9U U11G C12U C13A | 1.32
U7C U8G G9U U11G C12U C13G | 1.23
U7C U8G U10C C12G C13G | 1.13
U7C U8G U10C C12G C13U | 1.35
U7C U8G U10C C12G C13A | 1.11
U7C U8G G9U U10C U11A C13G | 1.24
U7C U8G G9U U10C U11A C13A | 1.24
U7C U8G G9U U10C U11A C13U | 1.35
U7C U8G G9U U10G U11A C12A C13G | 1.17
U7C U8G G9U U10G U11A C12A C13A | 1.18
U7C U8G G9U U10G U11A C12A C13U | 1.26
U7C U8G U10A U11G C13G | 1.06
U7C U8G U10A U11G C13A | 1.11
U7C U8G U10A U11G C13U | 1.28
U7C U8G U10A U11C C12U C13G | 1.18
U7C U8G U10A U11C C12U C13A | 1.1
U7C U8G U10A U11C C12U C13U | 1.06
U7C U8G G9U U10A C13G | 1.08
U7C U8G G9U U10A C13A | 1.14
U7C U8G G9U U10A C13U | 1.1
